Experimental data: paper PMC3428855

Target: GST coupled TRPM8 N terminal fragment (1~691) (UniProt Q7Z2W7)
Test: pull-down

Chain of UniProt Q7Z2W7 (Q7Z2W7 1-691): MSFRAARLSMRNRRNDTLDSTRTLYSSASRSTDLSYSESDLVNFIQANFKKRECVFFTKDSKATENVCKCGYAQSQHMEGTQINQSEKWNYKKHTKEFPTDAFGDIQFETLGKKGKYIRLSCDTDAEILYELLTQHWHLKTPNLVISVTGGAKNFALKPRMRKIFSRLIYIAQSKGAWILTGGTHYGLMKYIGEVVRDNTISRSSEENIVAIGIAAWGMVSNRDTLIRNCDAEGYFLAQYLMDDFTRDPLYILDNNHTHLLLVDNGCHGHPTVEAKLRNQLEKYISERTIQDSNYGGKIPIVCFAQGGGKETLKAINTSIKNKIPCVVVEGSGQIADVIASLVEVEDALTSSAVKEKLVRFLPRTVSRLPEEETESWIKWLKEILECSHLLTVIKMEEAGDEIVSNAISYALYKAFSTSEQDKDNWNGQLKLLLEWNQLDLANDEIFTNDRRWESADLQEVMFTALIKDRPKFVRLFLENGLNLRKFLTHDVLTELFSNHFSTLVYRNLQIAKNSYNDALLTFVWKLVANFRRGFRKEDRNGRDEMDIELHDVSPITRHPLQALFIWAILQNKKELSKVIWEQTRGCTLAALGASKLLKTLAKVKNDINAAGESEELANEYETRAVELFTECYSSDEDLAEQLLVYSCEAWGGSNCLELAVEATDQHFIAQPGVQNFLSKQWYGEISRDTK

fold Gαq bound relative to TRPM8 C terminal: 1.28 fold
Substance: Gαq (wild type) (from UniProt P50148 1-359) (natural protein)
